Measurements published in patent US20110014656A1 (ZymoGenetics, published 2011).
Where “and” joins values, the source holds several entries; their conditions need not be identical. Identical values can stand only once.

Key:
[1] = molecular target: T1, human IL-17RC, x1 splice variant, on transfected cells (human, UniProt Q8NAC3 21-791); assay: cell-based or functional assay
T1 sequence: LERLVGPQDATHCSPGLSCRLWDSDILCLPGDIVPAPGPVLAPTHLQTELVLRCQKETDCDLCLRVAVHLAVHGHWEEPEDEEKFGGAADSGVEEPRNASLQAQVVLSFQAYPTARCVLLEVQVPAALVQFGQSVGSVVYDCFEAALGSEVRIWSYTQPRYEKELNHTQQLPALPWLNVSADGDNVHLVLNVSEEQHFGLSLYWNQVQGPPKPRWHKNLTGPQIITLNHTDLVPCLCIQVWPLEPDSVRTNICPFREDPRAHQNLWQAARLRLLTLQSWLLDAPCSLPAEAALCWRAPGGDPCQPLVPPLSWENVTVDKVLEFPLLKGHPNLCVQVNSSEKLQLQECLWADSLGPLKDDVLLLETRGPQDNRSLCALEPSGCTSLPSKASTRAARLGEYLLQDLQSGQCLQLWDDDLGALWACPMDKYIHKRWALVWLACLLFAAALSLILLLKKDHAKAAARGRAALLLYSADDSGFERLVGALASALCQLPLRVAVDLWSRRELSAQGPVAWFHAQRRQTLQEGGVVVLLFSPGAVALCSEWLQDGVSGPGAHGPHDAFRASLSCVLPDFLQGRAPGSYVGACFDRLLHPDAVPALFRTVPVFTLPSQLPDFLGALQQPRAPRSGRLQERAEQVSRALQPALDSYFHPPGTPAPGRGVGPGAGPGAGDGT

[2] = molecular target: T2, human IL-17RC, x4 splice variant, on transfected cells (human, UniProt Q8NAC3 21-791); assay: FACS, biotinylated cytokine on transiently transfected 293F cells
T2 construct: Expressed on 293F, BHK or NIH3T3 cells; also called hIL-17RCx4; hIL-17RCX4
T2 sequence: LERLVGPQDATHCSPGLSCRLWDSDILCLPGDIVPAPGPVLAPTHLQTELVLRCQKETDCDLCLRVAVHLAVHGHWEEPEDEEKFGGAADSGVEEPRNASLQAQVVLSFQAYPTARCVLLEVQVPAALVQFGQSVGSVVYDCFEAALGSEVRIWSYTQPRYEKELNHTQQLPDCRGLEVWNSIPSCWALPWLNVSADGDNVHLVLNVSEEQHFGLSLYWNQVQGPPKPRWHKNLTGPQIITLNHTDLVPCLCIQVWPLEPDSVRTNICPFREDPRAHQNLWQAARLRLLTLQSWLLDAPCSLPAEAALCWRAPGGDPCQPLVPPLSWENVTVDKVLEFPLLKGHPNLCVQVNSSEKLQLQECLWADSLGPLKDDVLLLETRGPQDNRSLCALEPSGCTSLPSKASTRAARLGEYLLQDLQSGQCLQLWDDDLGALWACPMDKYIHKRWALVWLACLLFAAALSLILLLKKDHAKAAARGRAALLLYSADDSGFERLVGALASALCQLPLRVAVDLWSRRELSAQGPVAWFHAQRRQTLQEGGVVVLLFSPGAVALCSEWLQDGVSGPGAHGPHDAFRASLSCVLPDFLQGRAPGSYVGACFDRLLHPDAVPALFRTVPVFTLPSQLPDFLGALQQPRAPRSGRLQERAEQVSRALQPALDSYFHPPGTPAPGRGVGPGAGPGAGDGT
Excerpt: (§1) However, the other splice variants tested either included or excluded hIL-17RC exon 12. These variants were designated hIL-17RCx1 (identical in exon composition to mouse x1 above), hIL-17RCx4 (identical in exon composition to mouse x4 above), hIL-17RCx2, and hIL-17RCx7.

[3] = molecular target: T1, human IL-17RC, x1 splice variant, on …; assay: as above
Excerpt: as §1

murine IL-17RA-Ig = molecular target: T3, murine IL-17RA-Ig (mouse, UniProt Q60943 32-322); assay: Biacore, soluble receptor captured on chip, cytokine as analyte
T3 construct: also called mL-17RA-Ig; mIL-17RA-Fc; not shown: Ig/Fc part
T3 sequence (looked up): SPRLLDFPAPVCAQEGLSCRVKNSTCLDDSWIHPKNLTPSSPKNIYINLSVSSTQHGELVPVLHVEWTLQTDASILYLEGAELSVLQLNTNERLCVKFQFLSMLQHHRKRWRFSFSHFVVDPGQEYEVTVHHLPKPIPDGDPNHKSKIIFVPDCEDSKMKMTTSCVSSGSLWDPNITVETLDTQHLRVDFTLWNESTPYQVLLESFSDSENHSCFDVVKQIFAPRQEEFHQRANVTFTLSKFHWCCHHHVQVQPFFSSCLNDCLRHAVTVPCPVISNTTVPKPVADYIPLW

[4] = molecular target: T4, IL17A-CH6/IL17F-CEE 2 chain heterodimer (human, UniProt Q16552 24-155; Q96PD4 31-163); assay: Biacore T100, receptor captured by anti-human IgG Fc-gamma on CM4 chip; KA1 of the bivalent analyte model
T4 construct: The entries may include a signal peptide; also called IL-17A/F heterodimer; zcyto40f2v.1-2chain
T4 sequence 1: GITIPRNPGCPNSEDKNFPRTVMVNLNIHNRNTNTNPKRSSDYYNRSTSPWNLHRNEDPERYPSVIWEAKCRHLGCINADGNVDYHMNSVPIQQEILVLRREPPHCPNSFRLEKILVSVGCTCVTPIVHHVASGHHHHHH
T4 sequence 2: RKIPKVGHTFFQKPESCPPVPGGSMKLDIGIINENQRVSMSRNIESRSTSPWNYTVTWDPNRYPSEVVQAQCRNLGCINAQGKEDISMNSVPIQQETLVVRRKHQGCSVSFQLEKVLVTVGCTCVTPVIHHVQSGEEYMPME
Experimental: (§2) The binding kinetics and affinity study was performed on a Biacore T100™ system (GE Healthcare, Piscataway, N.J.). Methods for the Biacore T100™ were programmed using Biacore T100™ Control Software, v 1.1.1. […] The capture antibody was covalently immobilized to a CM4 sensor chip using a mixture of 0.4 M EDC [N-ethyl-N′-(3-[…])carbodiimide] and 0.1 M NHS (N-hydroxysuccinimide) to a density of approximately 4000 RU. […] Capture of the receptor to the immobilized surface was performed at a flow rate of 10 μL/min. The Biacore instrument measures the mass of protein bound to the sensor chip surface, and thus, capture of the soluble receptor was verified for each analysis cycle.
(§3) Between analysis cycles, the flow cell was washed with 20 mM hydrochloric acid to regenerate the surface. […] Data was compiled using the Biacore T100™ Evaluation software (version 1.1.1). Data was processed by subtracting reference flow cell and blank injections. Baseline stability was assessed to ensure that the regeneration step provided a consistent binding surface throughout the sequence of injections. Duplicate injection curves were checked for reproducibility. […] If only one portion of the heterodimer binds to the receptor, a simple 1:1 binding model would be appropriate and the curves should fit well to this model. […]

[5] = molecular target: T4, IL17A-CH6/IL17F-CEE 2 chain heterodimer; assay: Biacore T100, receptor captured by anti-human IgG Fc-gamma on CM4 chip; ka1 of the bivalent analyte model
Experimental: as §2, §3

[6] = molecular target: T4, IL17A-CH6/IL17F-CEE 2 chain heterodimer; assay: cell-based or functional assay
[7] = molecular target: single chain human IL17A:IL17F heterodimer (human); assay: cell-based or functional assay
human IL-17F [8] = molecular target: T5, human IL-17F (human, UniProt Q96PD4 31-163); assay: cell-based or functional assay
T5 sequence: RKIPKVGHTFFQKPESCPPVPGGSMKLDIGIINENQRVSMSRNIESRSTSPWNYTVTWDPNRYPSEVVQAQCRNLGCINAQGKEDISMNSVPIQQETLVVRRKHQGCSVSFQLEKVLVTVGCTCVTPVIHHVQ

human IL-17A [9] = molecular target: T6, human IL-17A (human, UniProt Q16552 24-155); assay: cell-based or functional assay
T6 sequence: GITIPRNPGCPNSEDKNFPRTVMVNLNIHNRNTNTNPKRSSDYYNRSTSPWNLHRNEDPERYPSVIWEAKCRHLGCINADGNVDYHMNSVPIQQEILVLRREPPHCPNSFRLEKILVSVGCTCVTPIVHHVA

human IL-17F [10] = molecular target: T5, human IL-17F; assay: Biacore, receptor captured by anti-human IgG Fc on CM5 chip, ligand as analyte
Excerpt: (§4) The protocol was optimized to capture receptor at a theoretical binding max. before injecting a concentration series of each ligand to observe association and dissociation. […] The surface was regenerated with 2×30 sec. injections of pH 1.75 glycine between cycles.

human IL-17A [11] = molecular target: T6, human IL-17A; assay: as above
Excerpt: as §4

[12] = molecular target: T4, IL17A-CH6/IL17F-CEE 2 chain heterodimer; assay: Biacore T100, receptor captured by anti-human IgG Fc-gamma on CM4 chip; KD1 of the bivalent analyte model
Experimental: as §2, §3

human IL-17F [13] = molecular target: T5, human IL-17F; assay: cell-based or functional assay; remark: listed apart in the source
human IL-17A [14] = molecular target: T6, human IL-17A; assay: cell-based or functional assay; remark: listed apart in the source
human IL-17F [15] = molecular target: T5, human IL-17F; assay: Biacore, summary of Table 11
Excerpt: as §4

human IL-17A [16] = molecular target: T6, human IL-17A; assay: Biacore, summary of Table 11
Excerpt: as §4

[17] = molecular target: T4, IL17A-CH6/IL17F-CEE 2 chain heterodimer; assay: Biacore T100, receptor captured by anti-human IgG Fc-gamma on CM4 chip; kd1 of the bivalent analyte model
Experimental: as §2, §3

B1: murine IL-17A (ligand)
chain: AAIIPQSSACPNTEAKDFLQNVKVNLKVFNSLGAKVSSRRPSDYLNRSTSPWTLHRNEDPDRYPSVIWEAQCRHQRCVNAEGKLDHHMNSVLIQQEILVLKREPESCPFTFRVEKMLVGVGCTCVASIVRQAA
notes: also called mIL-17A; mIL17A
With B1 the “EC50, luciferase in nih3t3/kz142.8/hcytor14x1 cells” value [1] was roughly 4 ng/mL, the binding result [2] was “no binding” and the binding result [3] was “no binding”. The Kd (murine IL-17RA-Ig) was 0.069 nM and 0.072 nM.

B2: Variant 1454, soluble IL-17RC/IL-17RA polypeptide fused to Fc5 (Fc fusion)
chain: LRLLDHRALVCSQPGLNCTVKNSTCLDDSWIHPRNLTPSSPKDLQIQLHFAHTQQGDLFPVAHIEWTLQTDASILYLEGAELSVLQLNTNERLCVRFEFLSKLRHHHRRWRFTFSHFVVDPDQEYEVTVHHLPKPIPDGDPNHQSKNFLVPDCEHARMKVTTPCMSSALPWLNVSADGDNVHLVLNVSEEQHFGLSLYWNQVQGPPKPRWHKNLTGPQIITLNHTDLVPCLCIQVWPLEPDSVRTNICPFREDPRAHQNLWQAARLRLLTLQSWLLDAPCSLPAEAALCWRAPGGDPCQPLVPPLSWENVTVDKVLEFPLLKGHPNLCVQVNSSEKLQLQECLWADSLGPLKDDVLLLETRGPQDNRSLCALEPSGCTSLPSKASTRAARLGEYLLQDLQSGQCLQLWDDDLGALWACPMDKYIHKEPKSSDKTHTCPPCPAPEAEGAPSVFLFPPKPKDTLMISRTPEVTCVVVDVSHEDPEVKFNWYVDGVEVHNAKTKPREEQYNSTYRVVSVLTVLHQDWLNGKEYKCKVSNKALPSSIEKTISKAKGQPREPQVYTLPPSRDELTKNQVSLTCLVKGFYPSDIAVEWESNGQPENNYKTTPPVLDSDGSFFLYSKLTVDKSRWQQGNVFSCSVMHEALHNHYTQKSLSLSPGK
notes: also called IL-17RA/RC-Fc5; IL17RA/RC 1454
In the case of B2, the Ka [4] is reported as 2e+08 M⁻¹, the kon [5] is reported as 500000 M⁻¹ s⁻¹ and the “IC50, NIH-3T3/KZ170 luciferase reporter neutralization assay” value [6] is reported as 3.17 nM. For the same binder, the “IC50, NIH-3T3/KZ170 luciferase reporter neutralization assay” value [7] was 13.3 nM, the “IC50, NIH-3T3/KZ170 luciferase reporter neutralization assay” value (human IL-17F [8]) was 0.874 nM and the “IC50, luciferase in hIL-17RA/NIH3T3/KZ142.8 cells, 20 ng/ml IL-17F” value (human IL-17F [8]) was 0.48 µg/mL. For the same binder, the “IC50, luciferase in hIL-17RCX4/NIH3T3/KZ142.8 cells, 1 ng/ml IL-17F” value (human IL-17F [8]) was 0.8 µg/mL, the “IC50, NIH-3T3/KZ170 luciferase reporter neutralization assay” value (human IL-17A [9]) was 0.167 nM and the “IC50, luciferase in hIL-17RA/NIH3T3/KZ142.8 cells, 0.5 ng/ml IL-17A” value (human IL-17A [9]) was 1 ng/mL. The Kd (human IL-17F [10]) was 0.143 nM and 0.126 nM, the koff (human IL-17F [10]) was 0.000261 s⁻¹ and 0.000315 s⁻¹ and the kon (human IL-17F [10]) was 1.82e+06 M⁻¹ s⁻¹ and 2.49e+06 M⁻¹ s⁻¹. The Kd (human IL-17A [11]) was 0.0439 nM and 0.0382 nM, the koff (human IL-17A [11]) was 6.22e-05 s⁻¹ and 9.95e-05 s⁻¹ and the kon (human IL-17A [11]) was 1.42e+06 M⁻¹ s⁻¹ and 2.61e+06 M⁻¹ s⁻¹. For the same binder, the Kd [12] was 4 nM, the “IC50, huIL-17F(50 ng/ml) induction of G-CSF in SAEC” value (human IL-17F [13]) was 1.2 µg/mL and the “IC50, huIL-17F(50 ng/ml) induction of IL-8 in SAEC” value (human IL-17F [13]) was 0.57 µg/mL. The “IC50, huIL-17A(10 ng/ml) induction of G-CSF in SAEC” value (human IL-17A [14]) was 0.14 µg/mL, the “IC50, huIL-17A(10 ng/ml) induction of IL-8 in SAEC” value (human IL-17A [14]) was 0.03 µg/mL and the Kd (human IL-17F [15]) was roughly 0.14 nM. For the same binder, the Kd (human IL-17A [16]) was roughly 0.04 nM and the koff [17] was 0.002 s⁻¹.
